# Laboratory results taken from patent US20240010696A1 (Pfizer, published 2024).
# Numbering of substitutions follows the chain as printed.
# B1: H10/TPP-76868 fusion protein (other)
# heavy 1: EVQLVESGGGLVQPGGSLRLSCAASGFSFGDFDMRWFRQAPGKGLEWVGLIKSRAYLEATEFAASVEGRFTISRDDAKNSAYLQMNSLRAEDTAVYYCTRDSYSSGLLDYWGQGTLVTVSSASTKGPSVFPLAPSSKSTSGGTAALGCLVKDYFPEPVTVSWNSGALTSGVHTFPAVLQSSGLYSLSSVVTVPSSSLGTQTYICNVNHKPSNTKVDKKVEPKSCDKTHTCPPCPAPEAAGAPSVFLFPPKPKDTLMISRTPEVTCVVVDVSHEDPEVKFNWYVDGVEVHNAKTKPREEQYNSTYRVVSVLTVLHQDWLNGKEYKCKVSNKALPAPIEKTISKAKGQPREPQVYTLPPCREEMTKNQVSLSCAVKGFYPSDIAVEWESNGQPENNYKTTPPVLDSDGSFFLVSKLTVDKSRWQQGNVFSCSVMHEALHNHYTQKSLSLSPGK
# heavy 2: EVQLVESGGGLVQPGGSLRLSCAASGFSFGDFDMRWFRQAPGKGLEWVGLIKSRAYLEATEFAASVEGRFTISRDDAKNSAYLQMNSLRAEDTAVYYCTRDSYSSGLLDYWGQGTLVTVSSASTKGPSVFPLAPSSKSTSGGTAALGCLVKDYFPEPVTVSWNSGALTSGVHTFPAVLQSSGLYSLSSVVTVPSSSLGTQTYICNVNHKPSNTKVDKKVEPKSCDKTHTCPPCPAPEAAGAPSVFLFPPKPKDTLMISRTPEVTCVVVDVSHEDPEVKFNWYVDGVEVHNAKTKPREEQYNSTYRVVSVLTVLHQDWLNGKEYKCKVSNKALPAPIEKTISKAKGQPREPQVCTLPPSREEMTKNQVSLWCLVKGFYPSDIAVEWESNGQPENNYKTTPPVLDSDGSFFLYSKLTVDKSRWQQGNVFSCSVMHEALHNHYTQKSLSLSPGSGGGGSGGGGSGGGGRNLPVATPDPGMFPCLHHSQNLLRAVSNMLQKARQTLEFYPCTSEEIDHEDITKDKTSTVEACLPLELTKNESCLNSRETSFITNGSCLASRKTSFMMALCLSSIYEDLKMYQVEFKTMNAKLLMDPKRQIFLDQNMLAVIDELMQALNFNSETVPQKSSLEEPDFAKTKIKLCILLHAFRIRAVTIDRVMSYLNAS
# light: DIQMTQSPSSLSASVGDRVTITCRASQGISNYLAWFQQKPGKAPKRLIYAAQIPGSGVPSRFSGSGSGTDFTLTISSLQPEDFATYYCLQHYSYPLTFGGGTKVEIKRTVAAPSVFIFPPSDEQLKSGTASVVCLLNNFYPREAKVQWKVDNALQSGNSQESVTEQDSKDSTYSLSSTLTLSKADYEKHKVYACEVTHQGLSSPVTKSFNRGEC
# chain: IWELKKDVYVVELDWYPDAPGEMVVLTCDTPEEDGITWTLDQSSEVLGSGKTLTIQVKEFGDAGQYTCHKGGEVLSHSLLLLHKKEDGIWSTLILKDQKEPKNKTFLRCEAKNYSGRFTCWWLTTISTDLTFSVKSSRGSSDPQGVTCGAATLSAERVRGDNKEYEYSVECQEDSACPAAEESLPIEVMVDAVHKLKYENYTSSFFIRDIIKPDPPKNLQLKPLKNSRQVEVSWEYPDTWSTPHSYFSLTFCVQVQGGGGDRVFTDKTSATVICRKNASISVRAQDRYYSSSWSEWASVPCS
# B2: H10/TPP-77658 fusion protein (other)
# heavy 1: B1 heavy 1 with L50T, S102A
# heavy 2: B1 heavy 2 with L50T, S102A
# light: B1 light
# chain: B1 chain
# B3: TPP-76868 (antibody, V domains shown)
# VH: EVQLVESGGGLVQPGGSLRLSCAASGFSFGDFDMRWFRQAPGKGLEWVGLIKSRAYLEATEFAASVEGRFTISRDDAKNSAYLQMNSLRAEDTAVYYCTRDSYSSGLLDYWGQGTLVTVSS
# VL: DIQMTQSPSSLSASVGDRVTITCRASQGISNYLAWFQQKPGKAPKRLIYAAQIPGSGVPSRFSGSGSGTDFTLTISSLQPEDFATYYCLQHYSYPLTFGGGTKVEIK
# B4: TPP-68807 (antibody, V domains shown)
# VH: B3 VH with R54K, L57R, E58Y
# VL: B3 VL with Q52S, Y92K
# B5: TPP-77658 (antibody, V domains shown)
# VH: B3 VH with L50T, S102A
# VL: B3 VL
# How the values were obtained:
# [1] = biological target: human IL-12 receptor on cells (human, UniProt P42701 24-662; Q99665 24-862); assay: cell-based or functional assay
# human IL-12 receptor on cells, sequence (Q99665 24-862, chain 2 of 2, other chains not shown): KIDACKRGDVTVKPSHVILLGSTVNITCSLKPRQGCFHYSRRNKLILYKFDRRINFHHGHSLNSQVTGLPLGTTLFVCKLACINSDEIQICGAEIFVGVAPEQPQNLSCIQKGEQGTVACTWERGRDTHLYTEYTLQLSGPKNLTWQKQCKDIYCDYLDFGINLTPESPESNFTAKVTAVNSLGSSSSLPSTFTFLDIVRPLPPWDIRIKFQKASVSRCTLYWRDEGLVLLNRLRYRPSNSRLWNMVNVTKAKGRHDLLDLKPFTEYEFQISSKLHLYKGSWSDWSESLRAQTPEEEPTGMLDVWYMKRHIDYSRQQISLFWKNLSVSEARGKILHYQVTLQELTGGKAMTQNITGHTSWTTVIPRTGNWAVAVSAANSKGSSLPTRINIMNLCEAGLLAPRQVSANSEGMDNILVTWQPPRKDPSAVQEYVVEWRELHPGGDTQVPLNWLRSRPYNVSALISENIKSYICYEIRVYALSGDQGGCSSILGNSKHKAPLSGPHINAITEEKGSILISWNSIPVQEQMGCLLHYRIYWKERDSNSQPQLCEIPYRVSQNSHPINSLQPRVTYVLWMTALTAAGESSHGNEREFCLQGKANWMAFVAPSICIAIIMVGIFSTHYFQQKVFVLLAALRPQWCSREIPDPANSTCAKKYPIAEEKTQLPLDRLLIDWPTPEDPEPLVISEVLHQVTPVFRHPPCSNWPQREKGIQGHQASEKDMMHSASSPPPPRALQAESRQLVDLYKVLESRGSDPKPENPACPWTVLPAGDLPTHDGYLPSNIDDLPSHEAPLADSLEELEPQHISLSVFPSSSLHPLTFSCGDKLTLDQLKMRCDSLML
# human PD1 = biological target: T1, human PD1 (human, UniProt Q15116 25-167, limits assumed); assay: binding kinetics to hPD1, method not stated
# T1 construct: the construct is not described; also called hPD1; programmed cell death protein 1
# T1 sequence (Q15116 25-167 limits assumed): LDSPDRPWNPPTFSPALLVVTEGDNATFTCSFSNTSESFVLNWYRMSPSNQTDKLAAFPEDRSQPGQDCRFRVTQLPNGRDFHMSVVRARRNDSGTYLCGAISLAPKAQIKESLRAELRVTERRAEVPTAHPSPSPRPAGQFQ
Binder,CD4 T cell activation assay PSTAT4 EC50 (ug/ml); Donor #1 [1] [µg/mL],CD4 T cell activation assay PSTAT4 EC50 (ug/ml); Donor #2 [1] [µg/mL],Kd (human PD1) [nM],koff (human PD1) [s⁻¹],kon (human PD1) [M⁻¹ s⁻¹],t1/2 (human PD1)
B1,0.139,0.998,–,–,–,–
B2,0.235,1.54,–,–,–,–
B3,–,–,3,0.000391,135000,1770 s (not printed; inferred from ln2/kd)
B4,–,–,3,0.000251,78500,2760 s (not printed; inferred from ln2/kd)
B5,–,–,7,0.000765,109000,906 s (not printed; inferred from ln2/kd)
